Biological target: FLAG® HA BAP fusion protein [phosphatase: P00634]
Test: immunoprecipitation of purified FLAG HA BAP in 3 extraction buffers, blot with anti-HA-peroxidase

- protein recovery (% of input protein) (% of input protein): > 70
Substance: ANTI-FLAG® affinity resin (antibody)
